T1: hENG(26-581)-hFc (human, UniProt P17813 26-581)
T1 construct: not shown: human IgG1 Fc domain
T1 sequence: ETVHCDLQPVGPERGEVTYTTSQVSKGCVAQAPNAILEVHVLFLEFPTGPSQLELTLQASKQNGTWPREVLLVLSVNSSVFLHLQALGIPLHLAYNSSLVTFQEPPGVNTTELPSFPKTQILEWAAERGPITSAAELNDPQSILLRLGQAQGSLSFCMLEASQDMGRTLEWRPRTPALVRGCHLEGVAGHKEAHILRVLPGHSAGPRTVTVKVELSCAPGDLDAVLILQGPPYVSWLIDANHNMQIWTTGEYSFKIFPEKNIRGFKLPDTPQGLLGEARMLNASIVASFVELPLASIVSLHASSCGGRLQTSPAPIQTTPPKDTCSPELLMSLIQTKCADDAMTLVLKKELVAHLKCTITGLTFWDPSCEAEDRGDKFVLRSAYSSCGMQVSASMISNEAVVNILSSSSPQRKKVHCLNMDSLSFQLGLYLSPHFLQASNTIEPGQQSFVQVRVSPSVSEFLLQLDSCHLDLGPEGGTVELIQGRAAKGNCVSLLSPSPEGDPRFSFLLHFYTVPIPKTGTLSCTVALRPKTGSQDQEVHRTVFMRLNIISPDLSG

T2: hENG(26-586) (R&D Systems, catalog #1097-EN) (human, UniProt P17813 26-586)
T2 construct: also called soluble human ENG extracellular domain
T2 sequence: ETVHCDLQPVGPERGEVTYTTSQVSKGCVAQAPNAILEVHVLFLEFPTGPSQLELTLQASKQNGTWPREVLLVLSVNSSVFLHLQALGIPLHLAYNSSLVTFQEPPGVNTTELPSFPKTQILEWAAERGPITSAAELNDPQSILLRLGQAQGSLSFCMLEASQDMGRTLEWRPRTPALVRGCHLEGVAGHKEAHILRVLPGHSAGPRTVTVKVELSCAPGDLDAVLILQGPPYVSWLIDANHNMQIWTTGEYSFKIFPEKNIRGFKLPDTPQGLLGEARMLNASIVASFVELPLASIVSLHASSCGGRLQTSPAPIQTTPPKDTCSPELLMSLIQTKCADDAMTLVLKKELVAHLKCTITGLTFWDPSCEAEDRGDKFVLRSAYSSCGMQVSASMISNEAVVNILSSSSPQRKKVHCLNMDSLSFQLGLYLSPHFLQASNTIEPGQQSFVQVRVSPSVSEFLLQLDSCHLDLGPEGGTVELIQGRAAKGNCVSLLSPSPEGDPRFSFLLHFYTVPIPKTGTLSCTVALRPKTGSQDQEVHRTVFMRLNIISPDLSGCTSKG

T3: hENG(166-346)-hFc (human, UniProt P17813 166-346)
T3 construct: not shown: human IgG1 Fc domain
T3 sequence: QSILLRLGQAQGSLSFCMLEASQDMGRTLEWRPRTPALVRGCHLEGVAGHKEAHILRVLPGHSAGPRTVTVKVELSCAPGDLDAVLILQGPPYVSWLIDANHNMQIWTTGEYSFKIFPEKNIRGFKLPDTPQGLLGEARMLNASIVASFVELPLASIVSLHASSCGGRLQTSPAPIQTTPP

T4: hENG(133-346)-hFc (human, UniProt P17813 133-346)
T4 construct: not shown: human IgG1 Fc domain
T4 sequence: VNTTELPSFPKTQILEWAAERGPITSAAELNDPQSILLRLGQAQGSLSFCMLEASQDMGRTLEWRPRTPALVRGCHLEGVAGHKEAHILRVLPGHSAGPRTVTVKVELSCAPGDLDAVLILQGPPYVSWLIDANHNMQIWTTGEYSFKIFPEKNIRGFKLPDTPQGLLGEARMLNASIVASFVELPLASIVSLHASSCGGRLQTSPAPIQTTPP

B1: human BMP-10 (ligand, UniProt O95393 317-424, looked up)
chain: NAKGNYCKRTPLYIDFKEIGWDSWIIAPPGYEAYECRGVCNYPLAEHLTPTKHAIIQALVHLKNSQKASKACCVPTKLEPISILYLDKGVVTYKFKYEGMAVSECGCR
notes: also called hBMP-10
B2: human BMP-9 (ligand, UniProt Q9UK05 320-429, looked up)
chain: SAGAGSHCQKTSLRVNFEDIGWDSWIIAPKEYEAYECKGGCFFPLADDVTPTKHAIVQTLVHLKFPTKVGKACCVPTKLSPISVLYKDDMGVPTLKYHYEGMSVAECGCR
notes: also called hBMP-9

Key:
hENG(26-581)-hFc = target: T1, hENG(26-581)-hFc; assay: SPR, captured hENG-hFc, ligand at 100 nM; ++++ = KD < 1 nM
[1] = target: T2, hENG(26-586) (R&D Systems, catalog …); assay: SPR competition in solution: 0-50 nM hENG(26-586) premixed with 10 nM BMP-10, binding of BMP-10 to captured ALK1-hFc read out
Source text: (§1) BMP-9 and BMP-10 are high-affinity ligands at the type I receptor ALK1 (activin receptor-like kinase 1). […] Similar results were obtained with BMP-10 (FIG. 21).

hENG(166-346)-hFc = target: T3, hENG(166-346)-hFc; assay: SPR, captured hENG-hFc, soluble ligand
hENG(133-346)-hFc = target: T4, hENG(133-346)-hFc; assay: SPR, captured hENG-hFc, soluble ligand
[2] = target: T2, hENG(26-586) (R&D Systems, catalog …); assay: SPR competition in solution: 0-50 nM hENG(26-586) premixed with 10 nM BMP-9, binding of BMP-9 to captured ALK1-hFc read out
Source text: as §1

Row | Binder | binding result (hENG(26-581)-hFc) | binding result [1] | binding result (hENG(166-346)-hFc) | binding result (hENG(133-346)-hFc) | binding result [2]
1 | B1 | binds | binds | no binding (tested: 100 nM) | no binding (tested: 100 nM) | 
2 | B2 | binds |  | no binding (tested: 100 nM) | no binding (tested: 100 nM) | binds

Reference: patent US20200164029A1 (ACCELERON PHARMA, published 2020)
